# Experiment: label from the status in PepcDB records
# 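Note: failed if final PepcDB status was selected cloned or expressed and not failed if soluble or beyond.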
row,Sequence,protein production
1,MWSILALGAVERCIHHIIDLDAITRIQTNQLQGKLLRVVTDSPQLSVDVFFDENRVRLEPTVTGQSQTPSIFEQRPFDPQYKMTDATATLHVKNIVELVKLLFNDPDQIGNIPVEGDYHLLQDIQKIMQQSEPDLAAHLSPWIGPALAHELGKIRLAPQQLKRSMQSHLFFVEDALKEDSGLFAPRWQMDDLQHATRQLNQELDRVEARLQQLNLQLQSDN,failed
2,MWWGVAAALLANVLYSTGFVLEKRALASLPEVDIRRPARLLRLVLGSPLWIGGSLSLAAGFGAQLAVYRTLPIAAAQGIFVSGLVLLVLLSARLLGEETTGRERYALGAILAALLMVVLSLREGSDKVSRSAPVPLILLVCVPSLAMGVWLYGSAERRARHRHRMPTTGVEYGVAVGLLYGVSSLAIKGVSSYLTPADGLGGAVVGLLRSPYPYLLLFTGVFGLVMSQAALQRCRASLIVPVCTTVTCLFTAVLGTLAFGEALPHEPLRLALRLAGTALAVSVLLAMPKHDTAPQPSAAPKELTPP,failed
3,MWWSGLASQSKAQETPGRRGLEERKQLIMEIYNSLRSADIASIEFEGPEIAVYIRNPKFIVENENVVKDLARKLRKRIVVRTHPKSRKSMEYTIKFIRENVPPDVGIVDIQFDDVLGEVRVIAEKPGKLMGRGKVFRNLVLAETGWRLEVYRKPLLQSGLLDSVLRHLQRHAEERRRALRDIGERIFRDTLIGTRHVRVVGLGSFGEVGRSAILVDTGESKVLLDAGLSPSGYGPDSYPYYWSPEFRVDELDAVVISHAHLDHVGTLPLLFKYGFRGPVYATPPTRDIMIIVLRDLINLMRKAQGEPPFEPRDVEKALTRLIPVNYNTVTDVAPDIKMTFINAGHILGSSMVHLHIGQGLYNILYTADFKFYRIKNDRSTRLLPPAEYSFQRVEALIMEATYGSKETQPRAEAEEELINLVNKVYKRGGKLLIPVMAVGRGQEILVVLNEALRSGKIPEIPIYVDGMVYEVTAVYTNYPELLVKPIRDRILKQGENPFEGPTTVYVTDHYKRDEAMYSDKPAIILSTSGMMNGGPIVEYFKYLADDPRNALAFVSYQAPGTLGRRLQSGEREIELEMDGGIRRIKVNMEIVSIEGFTGHSTRGELLSFLRRLNPKPRNIVLNHGEPSAIAALAHTVKTGWSKLGFESPPIIEAPENLEGVRLYPRNLKMKLALQHS,failed
4,MYADYEYYEKEYLLGKEPVIAERNYLYYEKQARAEVDKITFNRCRGLDEIPEEVKDCVCDVAEYLCKYDRYSGSDAPGPLASFGNDGETGTYDLSNSIYTESKRKEKIQETLYKHLADTGLLYSGR,failed
5,MYCKGRREREAYIVVKIDLITGFLGSGKTTFIRKYVKYLVDKGYNVGILENDYGAVNVDMMLLQDLMGPNCHAEMVAGGCGEDCHKRRFKTKLIAMGMSGYDRVIVEPSGIFDVDEFFDTLHEEPLDRWYEVGSIIAIVDAKLDTDMSRQSRYVLASEIANCGALVMSKTSGVSEDEISHTKEFVNKTLEEFQCRRRFDGDVITKAWELFGSEDYERFMSVGYKLNDFTKLWFKQSDVYSSVYIMNRNFTREQLVDIVNRVFSDKDCGDVFRIKGFFSVEQDSWLELNATVHKTEIKPIDKGQKIIIIIGSDLMEDKIKQYFEE,failed
6,MYDMVREKTYYFMIVERITIMTEKMTRMTQFVKEEIANAITHGIGAILSIPALIILIIHASKHGTASAVVAFTVYGVSMFLLYLFSTLLHSIHHPKVEKLFTILDHSAIYLLIAGTYTPFLLITLRGPLGWTLLAIIWTLAIGGIIFKIFFVRRFIKASTLCYIIMGWLIIVAIKPLYENLTGHGFSLLLAGGILYSVGAIFFLWEKLPFNHAIWHLFVLGGSAMMFFCVLFYVLPTAS,failed
7,MYDNENPNGFGSNPEENNDDNISGTENNNFEEVNSQQVSQDAVNSSEQNTEQTAEQESSVYRQSYVNDEHHNADDVSGNGTYYSQGSNNSSNDSTQNGSYYNNTQDGSYYNSNSNNSQNNGYYYSTNDSQTNNGYNYNSNNNNNGNGKKKKKKRTLIAVVAVCVVLLAGTIGISAAYFSKNKDSLTNVLEDGTLSNNNNNSNSNNDNSSDSGNYESIGSTNTQNDANSSSTSGVTVTDVSSVVSSAMPSVVAITSKTLVESRNDYSQDIWEYYFGGGNSGNNKSNSYEEDAAGSGIIVDQTSTELLIVTNNHVVEGADSLKIQFAGTESKDSVDGYIKGTDSTKDVAVVAVKLKDIPSDVLKNIKKATLGDSDKVNVGEGVIAIGNALGYGQSVTTGIISAKDRKVQLENQTMTLLQTDAAINGGNSGGALLNASGEVIGINVAKYSSSGSSSNASVEGMGFAIPISSVKDIISDLETKETRTKVSEDERGYLGISGFDVDEQTSQAYSIPQGIQVQSVVKGGPAENAGIAASDVITKFDGQDVSSMASLQSMLEYYKKGEQVKVTIEYRDGREYKTKDVTVTLGDKSVIETTQNAAN,failed
8,MYDYSILPNRIILCVDLRSFYASVSCIKMGLDPMHTKLAVVGDVNRNGSIVLAATPPLKALGVKKMARLYEIPRRKDILVVNPIMSTYIKCSNYITKLALQYVPIEDFHQYSIDEFFMDITDSIHLFAQDPYEFAMKFKREIYDHTRIECTIGIAPNPLMSKVALDIEAKKNKDGIAFWQYEDIPTKLWSIRPLNKFWGISYKTEEKLNRKGIYSIGDLANYPLKYLKQSFGKIGEELHLHSHGIDFSRISEKYVPATTSIGKSQILMRDYTIEEFPIILLEHIEEVCYRLRRQTKLAQTIHFSVGYSKSYTGGIRKTHTLNRPTNLTMDIYHICTYFLHQQYTGEPIRSINISLTNLIQEGEEQISLFDNVTKREQEMKLTKVMDEIRTKFGKNSILRGISYTHSATARHRNTLIGGHKS,failed
9,MYELERTVFQELFRRVLDNQYQVTPEERKALVQCDNSIVRRGIFSALTSFSLIYYGLKQFQKHFNASSSLRLRPAIPATLLGLTTGFFYGRTAAPGCLQNLMNVPNSAVAEEVKIIIRELYEQSPSSTTGQTIATRYGFLLDSTTVPMKISDVGFGDNENSDWKEVDTWQSDNSIYQGTVQKRVGPRNSDKRRVIRPNDKVENHIHQDALANSTSSLPSNETDYGFASLPGYSSSQSDSDVLESWDIGNDNQQENTNNEPNVKKESHRRRRRNEFRKSNGQVKSLESDPTEQGTIQTDTKDLLSSRQDTDALWDSSFSGKGSSATAF,failed
10,MYETFMKRAIELAKKGLGRVNPNPPVGAVVVKDGRIIAEGFHPYFGGPHAERMAIESARKKGEDLRGATLIVTLEPCDHHGKTPPCTDLIIESGIKTVVIGTRDPNPVSGNGVEKFRNHGIEVIEGVLEEEVKKLCEFFITYVTKKRPFVALKYASTLDGKIADHRGDSKWITDKLRFKVHEMRNIYSAVLVGAGTVLKDNPQLTCRLKEGRNPVRVILDRKGVLSGKVFRVFEENARVIVFTESEEAEYPPHVEKALSDCSVESILRNLYERDIDSVLVEGGSKVFSEFLDHADVVFGFYSTKIFGKGLDVFSGYLSDVSVPPKFKVVNVEFSDSEFLVEMRPCSRE,not failed
11,MYILIGGMGSMGSNLAKNLLKMGHTVAAVDTDPLACQYAREKIGVMAFEGSAVNTSVLLEAGVRKAGAVIAALQEDALNLALVTLSKHYGVPQIVVRMSDGDFAEPYRLAGATHIISTTELALNRVINAIEYPQVDAMMHFEQGQIEVLKLSIPPNCTIVGRSVAAIAQDPRFPSGTLIIGYQANAHEDLKIPNGNTLLEDGSTILAVTKPELVRQLIDFMGLCQS,failed
12,MYIPNAFRESDTHNLQEHMDKTRLAILVTQGDDGLHATHLPLLLRSDEGPYGTLYGHMAKANPQWQQLNADAEAMVIFPGEDAYVSPSFYPSKAEHGKVVPTWNYLAVHAYGQAECFTDPDRLHQLLNDLTDRHESSRAQPWSINDAPADYIAKMLGAIVGFSIPVQRL,failed
13,MYKRRVDPELEDLTSRAREALALFISISLRDNTELNLVVPNGPSWLSHVDKKDLYLNDETLKKITDILVAKDVTGNYNIVNVAIAAAPQHSQKRFVIYIKTSIYVEIVVIGNMKSNLTLIADGQDSTIITFNLSSSNSKRTFNTATFASNGDGFIRVDMCFRNTTWPVKGPVVTLRVNGDMSIIYRCRVEEYQDALYPHKNRQCYREYFLMDTVDFICGNAAAVFQFCQIVHMDG,not failed
14,MYLEKLQQWRYATADFSGAHITDDVLDKLLNTTRLTASSYGLQPYCTLVIRNKGLREQLVNHSFGQQKVADSSALVIFAAKTGAVADIVDPYISELSQQRQLTNEEAENTRNYFTQKLQAMSAATRKEWAVRQAYIGLGTFLLAAAELEVDSCPMEGIEHDAYDNILSLKDLGLSTVFACPVGYRSEADTTQFQKKVRQPLSRFKVVL,not failed
15,MYLLTFILIRINKYSDKAKKSAILVLLFLSLGAILKILEIADPSVKMDYIIQLVYSLTVFGAFVALSFYIKFLETPPSLTVHHSTKLPKNGGSEPKLVGAYLVSGSRSRIVDLINMIRELNAPILVFTRYPTFYQDLGENIKVIWITQASEDGIPPTKLHVIQDYAIKFAKENKYAVVIIDCVEYLLLYNEFASVFKFLASLKDYLIMMNSALVLAVDEKALDEKYYTLLLNEFEPL,failed
16,MYLQCYINEKGEKVYTTKKESPLGLATESAHPARFSPDDKYSKQRVLLKKRFGLLPTQNAPLQY,failed
17,MYMAQPGHIDHIKQINAGRVYKLIDQKGPISRIDLSKESELAPASITKITRELIDAHLIHETTVQEAISRGRPAVGLQTNNLGWQFLSMRLGRGYLTIALHELGGEVLIDTKIDIHEIDQDDVLARLLFEIEEFFQTYAAQLDRVTSIAITLPGLVNSEQGIVLQMPHYNVKNLALGPEIYKATGLPVFVANDTRAWALAEKLFGHSQDVDNSVLISIHHGLGAGIVLDGRVLQGRHGNIGELGHIQIDPQGKRCHCGNYGCLETVASSQAIRDQVTARIQAGEPSCLATVEEISIEDICAAAADGDPLAVDVIQQLGRYLGAAIAIVINLFNPEKILIGGVINQAKSILYPSIEQCIREQSLPVYHQDLKLVESRFYKQATMPGAALIKQALYDGLLLMKVVEG,not failed
18,MYPKQFLKFGETSLFQETVLRCLEVSDISEVFVVTNEAQKFFVIGQIKEAGYSIPPENILIEPEGKNTLPAIFFGMKEIEKKFGDSIVGVFSSDHVLDRAAMATISSAENLASDYLVTFGVVPTFPHTGYGYIKASEACSPGYRVSEFREKPDFETAKKYIEEGCLWNSGMFLFETRLFFEEARKHAPSVYGCFEKEGDINQIYECVDNISIDYGIMEKSDKVAVVRLDHKWSDLGNFAAIYDELEKDSVGNVIHDCDPMLLNSDGNLVYSRCGKIVSLIDVKDMVVVDTSDALLICPKSSSQKVKEIVSELKGRKDERAFIGQTVYRPWGSYTLLDASPGHKIKNITVLSDHKLSLQLHYHRSEHWVVVKGMACVEVDGKQFFLGPGESTFIRAGQKHRLSNPGKLPLEIIEVQLGELVDEEDIVRFDDVYGRRLEHHHHHH,not failed
19,MYPVDLHMHTVASTHAYSTLSDYIAQAKQKGIKLFAITDHGPDMEDAPHHWHFINMRIWPRVVDGVGILRGIEANIKNVDGEIDCSGKMFDSLDLIIAGFHEPVFAPHDKATNTQAMIATIASGNVHIISHPGNPKYEIDVKAVAEAAAKHQVALEINNSSFLHSRKGSEDNCREVAAAVRDAGGWVALGSDSHTAFTMGEFEECLKILDAVDFPPERILNVSPRRLLNFLESRGMAPIAEFADL,not failed
20,MYQKFKGGDLMIHGGDIYTEGVFKGRELLDYSSNINPLGIPKSFLNNIDEGIKNLGVYPDVNYRRLNKSIENYLKLKDIGIVLGNGASEIIELSISLFEKILIIVPSYAEYEINAKKHGVSVVFSYLDENMCIDYEDIISKIDDVDSVIIGNPNNPNGGLINKEKFIHVLKLAEEKKKTIIIDEAFIEFTGDPSSSFVGEIKNYSCLFIIRAMTKFFAMPGIRFGYGITNNKEIAAKIKAKQNPWNINCFAEMAAINCLKDTNYIEESLLWIKKERKRFIEELNKIGFIKRVFSPHANFVLCRLENISGEKLYDSLLKEDIVIRRCCNFIGLDDSFVRFAIKDEKKNTKFLRALKGVENNL,not failed
